From the Human Domainome abundance scans (Beltran et al. 2025)
± gives the uncertainty stated by the source.

B1: Far upstream element-binding protein 1, residues 184 to 257; numbered along this chain, Q96AE4 (parent)
chain: GNAVQEIMIPASKAGLVIGKGGETIKQLQERAGVKMVMIQDGPQNTGADKPLRITGDPYKVQQAKEMVLELIRD
B2: Tudor domain-containing protein 3, residues 554 to 611; numbered along this chain, Q9H7E2 (parent)
chain: KMWKPGDECFALYWEDNKFYRAEVEALHSSGMTAVVKFIDYGNYEEVLLSNIKPIQTE

Variants of: B1
Assay: abundance fitness (aPCA) (normalised: wild type 0, dead -1); higher = more abundant; growth selection in yeast, the domain comes from the species named
Conditions: Homo sapiens

Abundance fitness of substitutions, site by site:
Q44: A -0.008 ± 0.032
T55: W -0.115 ± 0.037 | P -0.963 ± 0.058
R53: H -0.046 ± 0.055 | F -0.116 ± 0.056
N45: G -0.008 ± 0.026 | F 0.023 ± 0.05
G33: E -0.081 ± 0.034 | S -0.123 ± 0.032 | R -0.119 ± 0.027 | Y -0.534 ± 0.063 | T -0.29 ± 0.039
I39: W -0.096 ± 0.036 | H -0.095 ± 0.05
V37: T -0.026 ± 0.037 | G -0.172 ± 0.026
E23: A 0.042 ± 0.03 | T 0.041 ± 0.034 | S 0.043 ± 0.031 | F -0.101 ± 0.05
M8: D -0.23 ± 0.046 | A -0.124 ± 0.032
K13: S -0.078 ± 0.031 | V -0.091 ± 0.031 | E -0.139 ± 0.035
V17: P -0.759 ± 0.046 | A -0.427 ± 0.035
V61: W -1.17 ± 0.077 | R -0.672 ± 0.032
K60: H -0.01 ± 0.047 | D -0.164 ± 0.041
K50: I -0.068 ± 0.048
V4: K 0.027 ± 0.037 | E 0.051 ± 0.034 | H 0.031 ± 0.047 | C -0.069 ± 0.043

Variants of: B2
Assay: as above
Conditions: Homo sapiens

Abundance fitness: each site, then its substitutions
K4: F -0.221 ± 0.078 | L -0.287 ± 0.065 | R -0.232 ± 0.061 | V -0.244 ± 0.065 | N -0.233 ± 0.13 | G -0.486 ± 0.064 | Y -0.17 ± 0.12 | Q -0.158 ± 0.089 | I -0.415 ± 0.11 | H -0.335 ± 0.099 | A -0.092 ± 0.082 | S -0.149 ± 0.065 | P -0.912 ± 0.16 | W -0.543 ± 0.083 | M -0.169 ± 0.095 | T -0.059 ± 0.077 | D -0.678 ± 0.13 | C -0.169 ± 0.084 | E -0.2 ± 0.093
M2: G -0.052 ± 0.068 | F -0.194 ± 0.15 | H -0.13 ± 0.17 | K -0.36 ± 0.11 | T -0.23 ± 0.091 | P -0.36 ± 0.1 | S -0.009 ± 0.077 | Y -0.15 ± 0.15 | W -0.657 ± 0.13 | I -0.201 ± 0.12 | A -0.192 ± 0.075 | V -0.164 ± 0.07 | E -0.19 ± 0.083 | Q -0.134 ± 0.14 | L -0.098 ± 0.075 | C -0.286 ± 0.14 | R -0.254 ± 0.086 | N -0.169 ± 0.17
P5: D -0.763 ± 0.15 | Y -0.447 ± 0.14 | R -0.123 ± 0.052 | G -0.61 ± 0.064 | T -0.024 ± 0.079 | S -0.113 ± 0.065 | A -0.017 ± 0.077 | W -0.926 ± 0.1 | L -0.261 ± 0.081 | H -0.133 ± 0.097 | I -0.141 ± 0.16 | C -0.201 ± 0.073 | Q -0.061 ± 0.09 | N 0.03 ± 0.15 | M -0.401 ± 0.1 | V -0.034 ± 0.07 | F -0.529 ± 0.15 | E -0.187 ± 0.11
W3: P -0.314 ± 0.11 | R -1.01 ± 0.11 | Q -0.721 ± 0.4 | A -0.634 ± 0.09 | Y -0.312 ± 0.12 | I -0.059 ± 0.13 | K -1.01 ± 0.3 | M -0.079 ± 0.11 | E -0.866 ± 0.17 | N -0.737 ± 0.28 | G -0.856 ± 0.081 | S -0.885 ± 0.1 | D -1.31 ± 0.34 | T -0.615 ± 0.1 | H -0.842 ± 0.21 | F 0.031 ± 0.12 | C -0.509 ± 0.12 | V -0.053 ± 0.068
K1: Y -0.158 ± 0.27 | R -0.326 ± 0.1 | N 0.085 ± 0.15 | A -0.218 ± 0.14 | C -0.261 ± 0.4 | S -0.283 ± 0.14 | Q -0.657 ± 0.25 | D -0.182 ± 0.21 | W -0.336 ± 0.33 | L -0.187 ± 0.18 | T -0.278 ± 0.17 | E -0.143 ± 0.2 | G -0.138 ± 0.14 | I 0.134 ± 0.2 | V -0.225 ± 0.13 | H -0.003 ± 0.25
G6: N -0.798 ± 0.12 | F -0.828 ± 0.12 | H -0.502 ± 0.12 | D -0.874 ± 0.089 | P -0.985 ± 0.13 | W -0.545 ± 0.093 | L -0.836 ± 0.083 | R -0.431 ± 0.058 | M -0.922 ± 0.13 | T -0.919 ± 0.13 | K -0.416 ± 0.1 | Q -0.832 ± 0.19 | I -0.941 ± 0.2 | Y -0.971 ± 0.25 | A -0.785 ± 0.086 | V -0.928 ± 0.094 | E -0.845 ± 0.12 | C -0.86 ± 0.093 | S -0.776 ± 0.08
E8: G -0.264 ± 0.054 | I 0.056 ± 0.1 | H 0.007 ± 0.089 | C -0.066 ± 0.086 | F -0.118 ± 0.12 | K 0.017 ± 0.095
D7: L -0.731 ± 0.077 | Y -0.712 ± 0.12 | K -0.887 ± 0.12 | W -0.882 ± 0.093 | G -0.899 ± 0.093 | V -0.789 ± 0.079 | C -0.573 ± 0.14 | H -0.764 ± 0.15 | F -0.677 ± 0.15 | N -0.631 ± 0.093 | S -0.608 ± 0.078 | P -0.706 ± 0.1 | T -0.502 ± 0.09 | Q -0.321 ± 0.094 | A -0.396 ± 0.068 | R -0.762 ± 0.07 | I -0.826 ± 0.17
